The text below walks through data of patent US20060253917A1 (published 2006).

In one assay the target is T1, Os008938-3209 aa 53-259 (Oryza sativa, UniProt Q06967 53-259).
T1 construct: prey, AD fusion; also called PN20215; O. sativa Putative 14-3-3 Protein
T1 sequence: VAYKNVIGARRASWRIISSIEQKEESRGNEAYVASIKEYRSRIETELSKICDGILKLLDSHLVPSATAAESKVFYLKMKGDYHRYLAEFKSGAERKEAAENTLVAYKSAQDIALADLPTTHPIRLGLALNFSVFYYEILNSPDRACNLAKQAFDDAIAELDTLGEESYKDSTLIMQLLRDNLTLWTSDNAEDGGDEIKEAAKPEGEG
Nature of the assay: Y2H; input trait library. Summed up: (§1)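 Myriad Genetics Inc. (Salt Lake City, Utah) supplied the automated, high-throughput yeast two-hybrid assay used to detect protein-protein interactions. A bait clone encoding a defined amino-acid fragment of a rice protein was screened against a rice prey library, either the input trait or the output trait library. To identify the interacting proteins, prey clones were retrieved and their encoding sequences were compared against databases by BLAST.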

Another assay concerns the target T2, OsS49462 aa 1-100 (Oryza sativa, UniProt Q01J96 179-278).
T2 construct: bait, Gal4 DBD fusion; also called PN20325; O. sativa Cyclin OsS49462, Fragment
T2 sequence: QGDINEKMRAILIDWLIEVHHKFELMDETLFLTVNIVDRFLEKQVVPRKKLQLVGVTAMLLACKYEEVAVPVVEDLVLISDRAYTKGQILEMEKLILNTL
The experiment in a line: Y2H; input trait library. Summed up: as §1

The target in another assay is T3, OsCS aa 316-583 (Oryza sativa, UniProt A2Y0X2 316-583).
T3 construct: bait, Gal4 DBD fusion; also called PN19707
T3 sequence: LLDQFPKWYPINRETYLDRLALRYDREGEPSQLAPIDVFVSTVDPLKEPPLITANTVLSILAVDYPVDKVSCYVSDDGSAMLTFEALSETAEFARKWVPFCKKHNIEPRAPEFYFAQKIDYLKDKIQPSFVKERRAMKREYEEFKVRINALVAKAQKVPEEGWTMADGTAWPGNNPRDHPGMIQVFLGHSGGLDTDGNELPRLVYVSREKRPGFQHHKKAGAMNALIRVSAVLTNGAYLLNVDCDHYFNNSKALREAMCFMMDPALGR
The experiment in a line: Y2H; input trait library. A digest of the protocol:
as §1

The next assay concerns the target T4, OsCS aa 411-489 (Oryza sativa, UniProt A2Y0X2 411-489).
T4 construct: prey, AD fusion; also called PN19707; O. sativa Cellulose Synthase Catalytic Subunit, RSW1-Like
T4 sequence: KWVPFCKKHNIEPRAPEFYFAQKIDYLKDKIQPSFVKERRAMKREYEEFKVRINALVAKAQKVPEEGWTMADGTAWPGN
Nature of the assay: Y2H; input trait library. Summed up: as §1

For another assay, the target named is T5, OsCATA aa 332-433 (Oryza sativa, UniProt P0C549 332-433).
T5 construct: prey, AD fusion; also called PN20899; O. sativa Catalase A Isozyme
T5 sequence: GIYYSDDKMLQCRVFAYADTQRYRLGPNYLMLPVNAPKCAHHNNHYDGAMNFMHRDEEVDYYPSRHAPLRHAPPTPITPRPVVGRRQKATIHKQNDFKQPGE
Nature of the assay: Y2H; input trait library. Summed up: as §1

A further assay deals with T6, OsPN22154 aa 390-562 (Oryza sativa, UniProt Q6Z6L4 390-562).
T6 construct: prey, AD fusion; also called Novel Protein PN22154, Similar to A. thaliana Glutamyl Aminopeptidase
T6 sequence: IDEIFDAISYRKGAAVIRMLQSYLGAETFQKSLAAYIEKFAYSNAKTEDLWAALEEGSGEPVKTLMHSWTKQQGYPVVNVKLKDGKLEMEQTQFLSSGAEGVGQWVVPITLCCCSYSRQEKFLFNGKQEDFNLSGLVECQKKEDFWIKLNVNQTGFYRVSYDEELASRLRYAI
Nature of the assay: Y2H; input trait library. Summed up: as §1

For the next assay, the target named is T7, PN24061 aa 34-236 (Oryza sativa, UniProt A2XLV9 34-236).
T7 construct: prey, AD fusion; also called Auxin induced protein-like
T7 sequence: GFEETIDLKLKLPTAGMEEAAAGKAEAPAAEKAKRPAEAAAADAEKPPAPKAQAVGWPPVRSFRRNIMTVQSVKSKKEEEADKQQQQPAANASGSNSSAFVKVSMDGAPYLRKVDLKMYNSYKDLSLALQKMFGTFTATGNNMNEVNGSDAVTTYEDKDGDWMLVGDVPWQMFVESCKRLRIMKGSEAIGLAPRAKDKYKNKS
The experiment in a line: Y2H; output trait library. Summed up:
(§2)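 The values record whether an interaction was detected. In an automated, high-throughput yeast two-hybrid screen from Myriad Genetics Inc., rice protein fragments defined by amino-acid range were used as bait against rice prey clone libraries. Full-length genes were identified by BLAST comparison of the sequences encoding the interacting prey fragments against databases.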

A further assay addresses T8, OsRACD aa 1-198 (Oryza sativa, UniProt Q6EP31 1-197).
T8 construct: bait, Gal4 DBD fusion; also called PN19695
Nature of the assay: Y2H; input trait library. Summed up:
as §1

The target of the next assay is T9, PN20674 aa 64-263 (Oryza sativa, UniProt Q6AVA8 64-263).
T9 construct: prey, AD fusion; also called Pyruvate orthophosphate dikinase-like
T9 sequence: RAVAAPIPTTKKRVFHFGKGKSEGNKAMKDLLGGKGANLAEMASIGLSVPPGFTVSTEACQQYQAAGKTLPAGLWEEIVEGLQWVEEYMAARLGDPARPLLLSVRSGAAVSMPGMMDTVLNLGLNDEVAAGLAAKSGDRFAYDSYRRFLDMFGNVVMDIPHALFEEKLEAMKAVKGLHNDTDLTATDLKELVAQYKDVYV
Nature of the assay: Y2H; input trait library. Summed up:
as §1

For a further assay, the target named is T10, PN20674 aa 71-298 (Oryza sativa, UniProt Q6AVA8 71-298).
T10 construct: prey, AD fusion; also called Pyruvate orthophosphate dikinase-like
T10 sequence: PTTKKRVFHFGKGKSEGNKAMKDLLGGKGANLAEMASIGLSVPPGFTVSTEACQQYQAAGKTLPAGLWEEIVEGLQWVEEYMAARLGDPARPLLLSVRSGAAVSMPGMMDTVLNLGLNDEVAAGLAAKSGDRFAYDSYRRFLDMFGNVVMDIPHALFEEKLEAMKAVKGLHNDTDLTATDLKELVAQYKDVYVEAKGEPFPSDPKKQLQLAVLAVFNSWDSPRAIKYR
The experiment in a line: Y2H; input trait library. Summed up:
as §1

Assay [1] concerns the target T11, OsERP (PN20696) aa 23-120 (Oryza sativa, UniProt Q0JBH9 23-120).
T11 construct: bait, Gal4 DBD fusion; also called Elicitor responsive protein
T11 sequence: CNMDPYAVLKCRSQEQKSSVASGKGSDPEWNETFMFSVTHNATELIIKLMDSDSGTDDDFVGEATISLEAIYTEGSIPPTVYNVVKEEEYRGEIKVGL
Nature of the assay: Y2H; output trait library. Summed up:
as §2

T8 sequence (Q6EP31 whole entry, the tested form may be a part): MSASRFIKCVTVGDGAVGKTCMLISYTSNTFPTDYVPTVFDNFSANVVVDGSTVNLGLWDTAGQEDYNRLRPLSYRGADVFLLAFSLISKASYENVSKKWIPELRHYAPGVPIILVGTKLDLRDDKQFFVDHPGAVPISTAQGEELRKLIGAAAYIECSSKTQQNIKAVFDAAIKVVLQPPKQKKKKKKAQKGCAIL

B1: OsCAA90866 aa 100-250 (other)
chain: GEMTERVAQEDRIPVLKASQDHLKEFISICEALELISEDELEISRQKNLIPWQIEEHRRLHGSSAKRLQKQSSRIKERKERRRRHESSCLSAPIELGGDLLRMMEKEREGMVSYYLIGSIEGFDLLDMLKKEEEIVPAVKEGKRRMVMHLL
notes: bait, Gal4 DBD fusion; also called PN20311; O. sativa Chilling-Inducible Protein CAA90866
On to B1, for which the binding result in the assay with Os008938-3209 aa 53-259 was “binds”.

B2: OsPN30848 aa 365-476 (other)
chain: DCSLAKPPAADKKDDRVPLPSSNGAPLLPSYPPLGYGIMSVPGAYGAAPASTAQPMLYAPRAPPGAAMVPMMLPDGRLVYVVQQPGGQLPLASPPPQQAGHRSGSGGRHGGS
notes: prey, AD fusion
In the case of B2, the binding result with OsS49462 aa 1-100 was “binds”.

B3: OsCS aa 316-582 (other)
chain: LLDQFPKWYPINRETYLDRLALRYDREGEPSQLAPIDVFVSTVDPLKEPPLITANTVLSILAVDYPVDKVSCYVSDDGSAMLTFEALSETAEFARKWVPFCKKHNIEPRAPEFYFAQKIDYLKDKIQPSFVKERRAMKREYEEFKVRINALVAKAQKVPEEGWTMADGTAWPGNNPRDHPGMIQVFLGHSGGLDTDGNELPRLVYVSREKRPGFQHHKKAGAMNALIRVSAVLTNGAYLLNVDCDHYFNNSKALREAMCFMMDPALG
notes: prey, AD fusion; also called PN19707
In the case of B3, the binding result with OsCS aa 316-583 is on record as “binds”.

B4: OsCHIB1 aa 10-200 (enzyme)
chain: YIGAQFTGVRFSDVPVNPGLSFHFILAFAIDYFMATQSSKPAPANGVFAPYWDTANLSPAAVAAAKAAHPNLSVILALGGDTVQNTGVNATFAPTSSVDAWVRNAADSVSGLIDAYGLDGVDVDYEHFAAGVDTFVECIGRLLTELKARHPNIATSIAPFEHPVVQRYYQPLWRRYAGVIDYVNFQFYGYG
notes: bait, Gal4 DBD fusion; also called PN19651; O. sativa Chitinase, Class III
For B4, the binding result in the assay with OsCS aa 411-489, with OsCATA aa 332-433 and with OsPN22154 aa 390-562 was “binds” throughout.

B5: OsSGT1 aa 200-368 (other)
chain: QMLSVSIEVPGEEPYHFQPRLFSKIIPEKSRYQVLSTKVEIRLAKAEQITWTSLDYDKKPKAVPQKIIPPAESAQRPSYPSSKSKKDWDKLEAEVKKEEKEEKLEGDAALNKFFRDIYSDADEDMRRAMMKSFVESNGTVLSTNWKDVGSKKVEGSPPDGMELKKWEY
notes: bait, Gal4 DBD fusion; also called PN20285
B5: the binding result in the assay with PN24061 aa 34-236 is on record as “binds”.

B6: OsPN22824 aa 301-500 (other)
chain: DGEEVSCGIKAALAEKELEEEETKKMIEEESIDATAIDSGEKENPEVAELKAKLMAKDMEVAILTADNAELKKQVGEAAEAAKKAEEEAAAKASLVEQDLKERAAREARMGEQLRASEAARETLEAEMRRLRVQTEQWRKAAEAAPPVIGGDAHFVGHNGNGWGSPATMPDDCDDEGFGGKRKGAGIRMLGDLWKKKGSK
notes: prey, AD fusion
As for B6, in the assay with OsRACD aa 1-198, the binding result was “binds”.

B7: OsERP (PN20696) aa 50-145 (other)
chain: PEWNETFMFSVTHNATELIIKLMDSDSGTDDDFVGEATISLEAIYTEGSIPPTVYNVVKEEEYRGEIKVGLTFTPEDDRDRGLSEEDIGGWKQSS
notes: bait, Gal4 DBD fusion; also called Elicitor responsive protein
With B7, the binding result in the assay with PN20674 aa 64-263 and in the assay with PN20674 aa 71-298 was “binds” in each case.

B8: PN31085 aa 378-553 (other)
chain: NGTISDSLGNLSELSDINLIGNNLTGHVPDSLTSLRLLQKLDLSGNDLTGPLPTFSPSVKVNVTGNLNFNGTAPGSAPSKDTPGSSSSRAPTLPGQGVLPENKKKRSAVVLATTIPVAVSVVALASVCAVLIFRKKRGSVPPNAASVVVHPRENSDPDNLVKIVMVNNDGNSSSTQ
notes: prey, AD fusion; also called Receptor-like protein kinase-like
With B8, the binding result in assay [1] is on record as “binds”.
